Molecular target: T1, HutP (V51I) (Bacillus subtilis, UniProt P10943 1-148, V51I)
T1 sequence: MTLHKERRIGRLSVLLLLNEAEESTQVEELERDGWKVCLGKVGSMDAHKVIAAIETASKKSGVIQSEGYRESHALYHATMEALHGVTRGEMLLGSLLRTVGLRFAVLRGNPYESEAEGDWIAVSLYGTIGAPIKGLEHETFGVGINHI
Test: EMSA

Does CAUAGAUCUUAGACGAUAGGG (ssRNA) [21mer hut RNA (minimal RNA element)] bind?
Result: binds

— paper PMC1236978
